Reference: patent US6730503B1 (Roche Vitamins Inc., priority 1996, dated 2004)

How the values were obtained:
[1] = Oxidation product of AADH clones by resting cell reaction followed by TLC analysis; assay type: cell-based, P. putida
Description: Enzyme A gene was originally cloned as a cosmid clone of p24D4 which has about 25 kb insert in EcoRI site of pVK100. Then, it was further subcloned to use as an Enzyme A gene cassette. The 2.7 kb EcoRV fragment which includes ORF of Enzyme A gene with about 500 bp of non-coding regions at the both ends was excised from 3.4 kb NruI fragment, which was isolated from p24D4 in M13 mp18, and was ligated to HindIII site of pUC18 with HindIII linker ([…]). The resulting plasmid was designated pSSA202. Enzyme A gene cassette (2.7 kb HindIII fragment) was then inserted at HindIII site of pVK102 to produce pSSA102R. The plasmid pSSA102R was introduced into nalidixic acid resistant P. putida [ATCC 21812] by a conjugal mating method as described in Example 1-(1). The transconjugant of P. putida carrying pSSA102R was selected on MB agar medium containing 50 μg/ml nalidixic acid and 10 μg/ml tetracycline (MNT agar medium) and subjected to a mini-resting cell reaction. […] The reaction mixture was assayed with TLC and 2KGA was identified as the product, while no 2KGA was observed by the same resting cell reaction with the host, nalidixic acid resistant P. putida [ATCC 21812].

[2] = 2KGA production by purified recombinant AADH in a reaction mixture; assay type: biochemical; conditions: 1.7 mg/ml enzyme, 4% L-sorbose, 30° C., 20 hours; TLC assay
Description: As a result, about 2 g/l 2KGA (TLC assay) was produced. […]

[3] = Product assay with Enzyme sA2 and Enzyme A; assay type: biochemical

| Molecule | Oxidation product of D-sorbitol [1] | Oxidation product of L-sorbose [1] | Oxidation product of L-sorbosone [1] | Oxidation product of D-glucose [1] | 2KGA produced [2] | Products from D-sorbitol in product assay [3] | Products from L-sorbose in product assay [3] [KGA] |
| --- | --- | --- | --- | --- | --- | --- | --- |
| Enzyme A″: recombinant AADH of G. oxydans DSM No. 4025, amino acid sequence SEQ ID NO 7, plasmid p26C3 (protein, Gluconobacter oxydans; SIGNAL (1)..(23)) MKLTTLLQSSAALLVLGTIPALAQTAITDEMLANPPAGEWINYGQNQENYRHSPLTQITADNVGQLQLVWARGMEAGKIQVTPLVHDGVMYLANPGDVIQAIDAATGDLIWEHRRQLPNIATLNSFGEPTRGMALYGTNVYFVSWDNHLVALDTSTGQVVFDVDRGQGTDMVSNSSGPIVANGVIVAGSTCQYSPFGCFVSGHDSATGEELWRNTFIPRAGEEGDETWGNDYEARWMTGVWGQITYDPVGGLVHYGTSAVGPAAEIQRGTVGGSMYGTNTRFAVRPETGEIVWRHQTLPRDNWDQECTFEMMVVNVDVQPSAEMEGLHAINPDAATGERRVVTGVPCKNGTMWQFDAETGEFLWARDTSYQNLIESVDPDGLVHVNEDLVVTELEVAYEICPTFLGGRDWPSAALNPDTGIYFIPLNNACSGMTAVDQEFSSLDVYNVSLDYKLSPGSENMGRIDAIDISTGRTLWSAERYASNYAPVLSTGGGVLFNGGTDRYFRALSQETGETLWQTRLATVASGQAISYEIDGVQYVAIGRGGTSYGSNHNRALTERIDSTAIGSAIYVFALPQQ | mainly D-glucose | *1Oxidation product of L-sorbose by Enzymes A, A′, A″, and [A and B] was 2KGA. | *4Oxidation product of L-sorbosone by Enzymes A, A′, A″, B, and [A and B] was 2KGA. |  |  |  |  |
| Enzyme B: recombinant AADH of G. oxydans DSM No. 4025, amino acid sequence SEQ ID NO 8, plasmid pSS31/pSSB103R (protein, Gluconobacter oxydans; SIGNAL (1)..(23)) MNPTTLLRTSAAVLLLTAPAAFAQVTPITDELLANPPAGEWINYGRNQENYRHSPLTQITADNVGQLQLVWARGMEAGAVQVTPMIHDGVMYLANPGDVIQALDAQTGDLIWEHRRQLPAVATLNAQGDRKRGVALYGTSLYFSSWDNHLIALDMETGQVVFDVERGSGEDGLTSNTTGPIVANGVIVAGSTCQYSPYGCFISGHDSATGEELWRNHFIPQPGEEGDETWGNDFEARWMTGVWGQITYDPVTNLVFYGSTGVGPASETQRGTPGGTLYGTNTRFAVRPDTGEIVWRHQTLPRDNWDQECTFEMMVANVDVQPSAEMEGLRAINPNAATGERRVLTGAPCKTGTMWSFDAASGEFLWARDTNYTNMIASIDETGLVTVNEDAVLKELDVEYDVCPTFLGGRDWSSAALNPDTGIYFLPLNNACYDIMAVDQEFSALDVYNTSATAKLAPGFENMGRIDAIDISTGRTLWSAERPAANYSPVLSTAGGVVFNGGTDRYFRALSQETGETLWQARLATVATGQAISYELDGVQYIAIGAGGLTYGTQLNAPLAEAIDSTSVGNAIYVFALPQ | L-sorbose |  | *4Oxidation product of L-sorbosone by Enzymes A, A′, A″, B, and [A and B] was 2KGA. | *2Oxidation product of D-glucose by Enzyme B, and Enzyems [A and B] was D-gluconic acid. |  |  |  |
| Enzyme A: recombinant AADH of G. oxydans DSM No. 4025, amino acid sequence SEQ ID NO 5, plasmid p24D4/pSSA102R (protein, Gluconobacter oxydans; SIGNAL (1)..(23)) MKPTSLLWASAGALALLAAPAFAQVTPVTDELLANPPAGEWISYGQNQENYRHSPLTQITTENVGQLQLVWARGMQPGKVQVTPLIHDGVMYLANPGDVIQAIDAKTGDLIWEHRRQLPNIATLNSFGEPTRGMALYGTNVYFVSWDNHLVALDTATGQVTFDVDRGQGEDMVSNSSGPIVANGVIVAGSTCQYSPFGCFVSGHDSATGEELWRNYFIPRAGEEGDETWGNDYEARWMTGAWGQITYDPVTNLVHYGSTAVGPASETQRGTPGGTLYGTNTRFAVRPDTGEIVWRHQTLPRDNWDQECTFEMMVTNVDVQPSTEMEGLQSINPNAATGERRVLTGVPCKTGTMWQFDAETGEFLWARDTNYQNMIESIDENGIVTVNEDAILKELDVEYDVCPTFLGGRDWPSAALNPDSGIYFIPLNNVCYDMMAVDQEFTSMDVYNTSNVTKLPPGKDMIGRIDAIDISTGRTLWSVERAAANYSPVLSTGGGVLFNGGTDRYFRALSQETGETLWQTRLATVASGQAISYEVDGMQYVAIAGGGVSYGSGLNSALAGERVDSTAIGNAVYVFALPQ | mainly D-glucose | *1Oxidation product of L-sorbose by Enzymes A, A′, A″, and [A and B] was 2KGA. | *4Oxidation product of L-sorbosone by Enzymes A, A′, A″, B, and [A and B] was 2KGA. |  | about 2 g/l | D-glucose only | 2 |
| Enzyme A′: recombinant AADH of G. oxydans DSM No. 4025, amino acid sequence SEQ ID NO 6, plasmid p1E2 (protein, Gluconobacter oxydans; SIGNAL (1)..(23)) MKTSSLLVASVAALASYSSFALAQVTPVTDELLANPPAGEWISYGQNQENYRHSPLTQITTENVGQLQLVWARGMQPGKVQVTPLIHDGVMYLANPGDVIQAIDAKTGDLIWEHRRQLPNIATLNSFGEPTRGMALYGTNVYFVSWDNHLVALDTATGQVTFDVDRGQGEDMVSNSSGPIVANGVIVAGSTCQYSPFGCFVSGHDSATGEELWRNYFIPRAGEEGDETWGNDYEARWMTGVWGQITYDPVGGLVHYGSSAVGPASETQRGTTGGTMYGTNTRFAVRPETGEIVWRHQTLPRDNWDQECTFEMMVANVDVQPAADMDGVRSINPNAATGERRVLTGVPCKTGTMWQFDAETGEFLWARDTSYENIIESIDENGIVTVDESKVLTELDTPYDVCPLLLGGRDWPSAALNPDTGIYFIPLNNTCMDIEAVDQEFSSLDVYNQSLTAKMAPGKELVGRIDAIDISTGRTLWTAEREASNYAPVLSTAGGVLFNGGTDRYFRALSQETGETLWQTRLATVASGQAVSYEIDGVQYIAIGGGGTTYGSFHNRPLAEPVDSTAIGNAMYVFALPQQ | mainly D-glucose | *1Oxidation product of L-sorbose by Enzymes A, A′, A″, and [A and B] was 2KGA. | *4Oxidation product of L-sorbosone by Enzymes A, A′, A″, B, and [A and B] was 2KGA. |  |  |  |  |
